{"source": "paper doi:10.1101/2024.01.29.577677"}
{"biological_target": "human ACE2 (human) (UniProt Q9BYF1)", "assay": "SPR", "units": {"fold increase in affinity relative to BA.2.86 RBD": "fold"}}
{"substance": "BA.2.86-P486F RBD (domain or fragment)", "fold increase in affinity relative to BA.2.86 RBD": 3}
{"substance": "BA.2.86-D450N RBD (domain or fragment)", "fold increase in affinity relative to BA.2.86 RBD": 3}
{"substance": "BA.2.86-H445V RBD (domain or fragment)", "fold increase in affinity relative to BA.2.86 RBD": 3}
